Experimental data published in paper PMC6156662 (Proceedings of the National Academy of Sciences of the …, 2018).
Positions count from the first letter of the chain named. In names and notes the source's numbering stands.

Key:
[1] = system: HCT116^WT and HCT116^δCHMP4C cells; assay: Cell-cycle arrest by flow cytometry, mitomycin C; type: cell-based; conditions: 200 ng/mL mitomycin C, overnight
[2] = system: HCT116^WT and HCT116^δCHMP4C cells; assay: Mitotic arrest by flow cytometry and Western blotting, nocodazole; type: cell-based; conditions: 50 ng/mL nocodazole
[3] = system: cells stably expressing HA-CHMP4C constructs, with siRNA; assay: Abscission checkpoint activation by drug; type: cell-based
HCT116 cells [4] = assay: Anaphase chromosome missegregation; type: cell-based; conditions: low-dose (0.1 μM) reversine, or p53 depletion by shRNA
HCT116^WT cells [5] = conditions: 0.1 μM reversine, 7 d
HCT116^WT cells [6] = conditions: 0.1 μM reversine, 48 h; <37 or >48 chromosomes; DMSO 1%
HCT116^δCHMP4C cells [7] = assay: Karyotyping, extreme aneuploidy in HCT116^δCHMP4C; type: cell-based; conditions: 0.1 μM reversine; for protection against reversine-induced aneuploidy: reexpression in HCT116^δCHMP4C
HCT116^δCHMP4C cells [8] = assay: Cell growth assay with reversine, HCT116^δCHMP4C; type: cell-based; conditions: 0.1 μM reversine
HCT116 cells [9] = conditions: 0.1 μM reversine, cells with defective abscission checkpoint
HCT116^δCHMP4C cells [10] = assay: Cell growth assay with aphidicolin; type: cell-based; conditions: 30 nM aphidicolin
full-length ALIX = assay: Yeast two-hybrid β-galactosidase assay with ALIX; conditions: full-length CHMP4C, mean ± SD, n = 3
[11] = system: HeLa cells stably expressing YFP-Lap2β; assay: Resolution time of YFP-Lap2β chromatin bridges, live-cell imaging; conditions: siCHMP4C, endogenous CHMP4C 685 min
midbody of HeLa cells = assay: HA-CHMP4C midbody recruitment; conditions: with or without nucleoporin depletion
HCT116 cells [12] = assay: Cell growth assay after p53 depletion; type: cell-based; conditions: p53 shRNA
HeLa cells = assay: Abscission checkpoint activity; conditions: siCHMP4C; Nup153/Nup50 partial depletion; midbody-arrested cells
HCT116^δCHMP4C cells [13] = assay: DNA damage: 53BP1 foci; type: cell-based; conditions: reexpression in HCT116^δCHMP4C
[14] = system: HeLa mCherry-tubulin cells; assay: Midbody abscission time, live-cell imaging; conditions: siCHMP4C background
[15] = construct expressed in HCT116^δCHMP4C

CO[C@@]12[C@H](COC(N)=O)C3=C(C(=O)C(C)=C(N)C3=O)N1C[C@@H]1N[C@@H]12 [mitomycin C]
G2/M cell-cycle arrest [1]: normal in HCT116^δCHMP4C cells

COC(=O)Nc1nc2cc(C(=O)c3cccs3)ccc2[nH]1 [nocodazole]
mitotic / G2/M arrest [2]: did not observe a failure of HCT116^δCHMP4C cells to arrest

c1nc2nc(Nc3ccc(N4CCOCC4)cc3)nc(NC3CCCCC3)c2[nH]1 [reversine]
activation of the abscission checkpoint ([3]; 0.1 μM reversine, 24 h): activated the abscission checkpoint in a CHMP4C-dependent fashion
anaphase chromosome missegregation (HCT116 cells [4]): doubled the frequency of anaphase chromosome missegregation
reduction of cell growth (HCT116^WT cells [5]): reduced HCT116^WT cell growth only modestly
cells with extreme aneuploidy (HCT116^WT cells [6]): 7%
cells with extreme aneuploidy (HCT116^δCHMP4C cells [7]; 48 h, <37 or >48 chromosomes, DMSO 4%): 23%
reduction of cell growth (HCT116^δCHMP4C cells [8]; over 7-d period): at least 70%
micronuclei (HCT116 cells [9]): did display a higher proportion of micronuclei
multinucleation (HCT116 cells [9]): did not induce a multinucleation phenotype

C[C@@]1(CO)[C@H](O)CC[C@@]2(C)[C@H]1CC[C@H]1C[C@@H]3C[C@@]12CC[C@]3(O)CO [aphidicolin, reference compound]
effect on proliferation (HCT116^δCHMP4C cells [10]; continuous): reduced the proliferation of HCT116^δCHMP4C cells nearly twofold compared with HCT116^WT cells
activation of the abscission checkpoint ([3]; 30 nM aphidicolin, 24 h (replication stress)): triggers the abscission checkpoint in a CHMP4C-dependent manner

B1: A232T full-length CHMP4C (protein, UniProt Q96CF2 1-233, looked up, variant A232T)
chain: MSKLGKFFKGGGSSKSRAAPSPQEALVRLRETEEMLGKKQEYLENRIQREIALAKKHGTQNKRAALQALKRKKRFEKQLTQIDGTLSTIEFQREALENSHTNTEVLRNMGFAAKAMKSVHENMDLNKIDDLMQEITEQQDIAQEISEAFSQRVGFGDDFDEDELMAELEELEQEELNKKMTNIRLPNVPSSSLPAQPNRKPGMSSTARRSRAASSQRAEEEDDDIKQLAAWTT
modifications: full-length
interaction with ALIX (full-length ALIX): significantly reduced the interaction between full-length CHMP4C and ALIX

B2: L228A with W231A full-length CHMP4C (protein, UniProt Q96CF2 1-233, looked up, variant L228A W231A)
chain: B1 chain with L228A, W231A, T232A
modifications: full-length
interaction with ALIX (full-length ALIX): complete loss of ALIX binding

B3: HA-CHMP4C^A232: HA-CHMP4C full length siRNA-resistant wild type, reference protein (protein, UniProt Q96CF2 1-233, looked up)
chain: B1 chain with T232A
modifications: full-length HA tag
chromatin bridge resolution time, median [11]: 800 min
rescue of growth defect under aphidicolin (HCT116^δCHMP4C cells [10]; [15]): rescued by expression of HA-CHMP4C^A232
recruitment to midbody (midbody of HeLa cells): recruited to the midbody at normal levels
growth after p53 depletion (HCT116 cells [12]): reversed upon reexpression of CHMP4C^A232
abscission checkpoint activity (HeLa cells): checkpoint activity was rescued in cells that expressed HA-CHMP4C^A232
DNA damage, 53BP1 foci (HCT116^δCHMP4C cells [13]): reduced to control levels upon reexpression of HA-CHMP4C^A232
protection against reversine-induced aneuploidy (HCT116^δCHMP4C cells [7]): protected against reversine-induced increases in aneuploidy
restoration of growth in presence of reversine (HCT116^δCHMP4C cells [8]; [15]): restored by the expression of HA-CHMP4C^A232

B4: HA-CHMP4C^T232: HA-CHMP4C full length siRNA-resistant T232 rs35094336 mutant (protein, UniProt Q96CF2 1-233, looked up, variant A232T)
chain: B1 chain
modifications: full-length HA tag
chromatin bridge resolution time, median [11]: 200 min
recruitment to midbody (midbody of HeLa cells): recruited to the midbody at normal levels
abscission checkpoint activity (HeLa cells): does not support the abscission checkpoint
protection against reversine-induced aneuploidy (HCT116^δCHMP4C cells [7]): but not HA-CHMP4C^T232, protected against reversine-induced increases in aneuploidy
abscission rate under normal growth conditions [14]: proceeded through abscission more rapidly under normal growth conditions
